Assay results published in patent publication US7794927B2, “Method for identifying agonists or antagonists of the G-protein coupled receptor mas-like 1” (priority 2002, dated 2010).
Ends that are not written are not given here.

Columns and labels:
[1] = target: T1, G protein-coupled receptor mas-like 1 (Homo sapiens, UniProt Q96LB1); assay: FLIPR assay of stimulation of mas-like 1 transiently expressed in CHO-K1 cells (Fluo4 Ca2+ fluorescence); assay type: cell-based; details: for formation of fluorescence in the cells: CHO-K1 cells transiently expressing mas-like 1, zero value about 20 fluorescence intensity units; for agonistic effects on mas-like 1: test system designed in accordance with the detection method
T1 construct: The receptor has therefore been amplified starting from genomic DNA using a polymerase chain reaction (PCR); expressed in transfected cells; host or cells: CHO-K1 (transient, pcDNA3.1)
T1 sequence (Q96LB1 1-330): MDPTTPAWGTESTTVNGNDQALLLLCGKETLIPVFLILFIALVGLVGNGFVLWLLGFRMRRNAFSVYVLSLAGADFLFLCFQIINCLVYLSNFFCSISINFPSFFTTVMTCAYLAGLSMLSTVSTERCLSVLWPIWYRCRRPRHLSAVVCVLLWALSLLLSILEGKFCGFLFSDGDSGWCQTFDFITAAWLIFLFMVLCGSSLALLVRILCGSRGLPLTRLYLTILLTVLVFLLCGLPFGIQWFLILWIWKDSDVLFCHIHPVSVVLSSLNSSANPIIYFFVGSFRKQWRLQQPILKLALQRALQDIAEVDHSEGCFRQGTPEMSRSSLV
Method: CHO-K1 cells were cultivated in basal Iscove's medium supplemented with 10% fetal bovine serum, 10 000 U/ml-10 000 μg/ml penicillin-streptomycin, gentamycin and 2 mM glutamine.
Iscove's medium is commercially available inter alia from Biochrom, Berlin. The composition of Iscove's medium is described in “Iscove, N. N., Melchers, F., Journal of Experimental Medicine 147, 923-933 (1978)”. The CHO-K1 cells were applied in an amount of 2×10^5 cells to a 35 mm culture dish for the transient transfection. The cells were transfected after incubation for about 24 hours or at a confluence of 50-80% with 2 μg of DNA using Lipofectamine reagent which is commercially available inter alia from Invitrogen Life Technologies, Karlsruhe.
About 16 to 18 hours after the transfection, the cells were transferred into 96-well microtiter plates with a density of about 80 000 cells per well. Incubation was then continued for 18 to 24 hours. After this, 95 μl of HBSS (Hank's buffered saline solution) which contained 20 mM HEPES, 2.5 mM probenecid, 4 μM Fluo4 and 1% fetal bovine serum were added, and incubation was carried out in the presence of 5% CO2 at 37° C. for 1 hour. Fluo4 is a dye which fluoresces in the presence of Ca^2+. Fluo4 is sold commercially inter alia by Molecular Probes Europe BV, Leiden. After the incubation, the cells were washed three times with PBS (phosphate buffered saline) which contained 1 mM MgCl2, 1 mM EDTA and 2.5 mM probenecid.
After the last washing step, about 100 μl of the solution were left on the cells in each well. The peptides to be tested were dissolved in water or DMSO (dimethyl sulfoxide) in a concentration of 2 mM. The appropriate dilutions of the final concentration ([…]) were prepared starting from such a stock solution. The fluorescence was measured using a FLIPR (Fluorometric Imaging Plate Reader; Molecular Devices GmbH, Ismaning) for a total of 3 minutes at 1-second intervals for the first minute and at 3-second intervals during the second and third minute. The measurements between 18 seconds and 37 seconds were used to determine the agonistic effect.
Various peptides were tested for their property of stimulating the G protein-coupled receptor mas-like 1. The test was carried out using FLIPR technology. The receptor was for this purpose transiently expressed in CHO-K1 cells.

[2] = target: T1, G protein-coupled receptor mas-like 1; assay: Arachidonic acid liberation in transiently transfected CHO-K1 cells; assay type: cell-based

Substance | formation of fluorescence in the cells [1] | concentration dependence of activation of the receptors ([1]; concentration range from 5×10^−6 to 1×10^−5M) | liberation of arachidonic acid [2] | agonistic effects on mas-like 1 [1]
H-Phe-Leu-Phe-Gln-Pro-Gln-Arg-Pro-NH2 (H-FLFQPQRP-NH2; listed as Homo sapiens) [neuropeptide FF, natural ligand of mas-like 1] | ca. 2 000 fluorescence intensity units |  |  | 
PKPQQFFGLM [substance P2-11] | ca. 2 500 fluorescence intensity units | linear dependence | liberated arachidonic acid | 
substance P1-9: N-terminal fragment of substance P, SEQ ID NO:12 (RPKPQQFFG; listed as Homo sapiens) |  |  |  | Agonistic effects were shown
substance P4-11: fragment of substance P, SEQ ID NO:11 (PQQFFGL; listed as Homo sapiens) |  |  |  | Agonistic effects were shown
